One data set has as its target T1, PhoD (mPhoD) (Bacillus subtilis, UniProt P42251).
T1 sequence (P42251 57-583): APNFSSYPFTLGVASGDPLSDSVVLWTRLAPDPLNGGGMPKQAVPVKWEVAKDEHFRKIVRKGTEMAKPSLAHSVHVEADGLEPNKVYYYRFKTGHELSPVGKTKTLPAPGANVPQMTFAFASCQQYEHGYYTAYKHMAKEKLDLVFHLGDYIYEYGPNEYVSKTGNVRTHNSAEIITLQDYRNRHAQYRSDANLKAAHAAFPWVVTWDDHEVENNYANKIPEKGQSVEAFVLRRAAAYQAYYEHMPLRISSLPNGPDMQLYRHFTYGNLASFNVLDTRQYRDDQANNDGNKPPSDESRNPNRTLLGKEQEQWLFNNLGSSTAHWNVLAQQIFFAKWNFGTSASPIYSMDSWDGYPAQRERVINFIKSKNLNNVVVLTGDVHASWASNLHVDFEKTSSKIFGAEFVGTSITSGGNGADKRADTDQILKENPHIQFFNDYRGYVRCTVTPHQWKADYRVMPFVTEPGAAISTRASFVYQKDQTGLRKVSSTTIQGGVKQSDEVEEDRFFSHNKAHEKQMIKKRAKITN
The following applies: crystallised at pH 5.6 with phosphate; active site, coordinates Fe3+ and two Ca2+ ions; proposed product complex.

Substrate in the data set “purified protein”: O=[N+]([O-])c1ccc(OP(=O)(O)O)cc1
The data set can be described thus: purified protein. The format is biochemical, Bacillus subtilis. The following applies: pH 8.0, 25 °C, 100 mM Tris-HCl, 2 mM CaCl2, Ca2+-supplemented enzyme.

Regarding `O=P(O)(O)O` [phosphate], at PhoD (mPhoD), the “X-ray crystal structure, 2 Å” value is listed as “the structure contains a phosphate molecule bound at the active site”.

B1: PhoD (mPhoD) (Bacillus subtilis subsp. subtilis str. 168) (protein)
chain: T1 sequence (P42251 57-583)
notes: mature domain, signal peptide removed; N-terminal Strep-SUMO tag cleaved by Ulp1; E. coli BL21(DE3) cytoplasm
The term Km denotes the substrate concentration at which the rate is half of its maximum. Broadly, the kcat is the number of substrate molecules converted per active site and unit of time at saturation. In the case of B1, in the data set “purified protein”, the Km turned out to be 50 µM and the kcat stood at 1.2 s⁻¹.
